From article doi:10.1101/2021.03.17.435802

Assays:
[1] = target: ACE2(HH:NN)-Fc LALA-PG (human) (UniProt Q9BYF1); assay: SPR
ACE2(HH:NN)-Fc (human) = ACE2(HH:NN)-Fc (human) (UniProt Q9BYF1); assay: SPR

“SARS-CoV-2 S1 B.1.1.7 (from UniProt P0DTC2 14-680) (domain or fragment)” was tested, and the fold enhanced affinity (against S1 WT) [1] was 3 fold and the fold enhanced affinity (against S1 WT) (ACE2(HH:NN)-Fc (human)) was 3 fold.
